Test results taken from IntAct's records for PubMed 20421493.

B1: Flagellar protein FliT (Salmonella typhimurium), P0A1N2 (parent)
chain: MTSTVEFINRWQRIALLSQSLLELAQRGEWDLLLQQEVSYLQSIETVMEKQTPPGITRSIQDMVAGYIKQTLDNEQLLKGLLQQRLDELSSLIGQSTRQKSLNNAYGRLSGMLLVPDAPGAS
partner: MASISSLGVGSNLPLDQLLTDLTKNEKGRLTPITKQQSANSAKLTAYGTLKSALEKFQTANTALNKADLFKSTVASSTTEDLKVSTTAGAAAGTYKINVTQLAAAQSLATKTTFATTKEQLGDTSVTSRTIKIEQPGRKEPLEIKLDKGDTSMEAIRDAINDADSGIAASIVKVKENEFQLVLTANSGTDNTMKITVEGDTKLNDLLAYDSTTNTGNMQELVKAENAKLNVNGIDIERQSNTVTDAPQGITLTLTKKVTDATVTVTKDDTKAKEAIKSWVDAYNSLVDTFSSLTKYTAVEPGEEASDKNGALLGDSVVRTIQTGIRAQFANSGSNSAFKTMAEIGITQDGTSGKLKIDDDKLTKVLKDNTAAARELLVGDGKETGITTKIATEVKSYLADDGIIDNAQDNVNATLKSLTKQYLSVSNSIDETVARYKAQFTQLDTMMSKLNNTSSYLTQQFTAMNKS

Variants of: B1
Conditions: with flid_salty fliD

Row | Variant | effect of a mutation on the interaction
1 | K79A | disrupting interaction strength
2 | E75A | decreasing interaction strength
